Experimental data taken from article PMC5784169, “Repression of Akt3 gene transcription by the tumor suppressor RIZ1”.

Columns and labels:
GST-RIZ1-Zf8 = target: T1, GST-RIZ1-Zf8 (UniProt Q13029 1455-1478); experiment: EMSA; abolished by 30-fold excess unlabeled probe; LightShift Chemiluminescent EMSA kit, native PAGE; buffer, salt, pH and temperature not stated; details: protein: recombinant; tags: N-terminal GST (pGEX-KG); label: 3' biotin; blunt
T1 chain: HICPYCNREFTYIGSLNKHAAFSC

GST-RIZ1-Zf1-3 = target: T2, GST-RIZ1-Zf1-3 (UniProt Q13029 360-506); experiment: as above; details: protein: recombinant; tags: N-terminal GST (pGEX-KG); label: 3' biotin; blunt
T2 sequence: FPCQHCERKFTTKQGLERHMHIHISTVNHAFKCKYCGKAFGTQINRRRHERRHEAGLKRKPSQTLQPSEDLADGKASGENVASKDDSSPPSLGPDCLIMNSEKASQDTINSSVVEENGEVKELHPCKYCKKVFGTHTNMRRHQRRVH

B1: mouse Akt3 promoter CpG146 probe (dsDNA)
DNA 1: GGGGAGGGGCCGTCTGCGCATGTGGCGGGAGTGCGGGCGA
DNA 2: TCGCCCGCACTCCCGCCACATGCGCAGACGGCCCCTCCCC
- binding result (GST-RIZ1-Zf8): binds
- binding result (GST-RIZ1-Zf1-3): binds
